# B1: OVA (protein, UniProt P01012 2-386, looked up)
# Ovalbumin: GSIGAASMEFCFDVFKELKVHHANENIFYCPIAIMSALAMVYLGAKDSTRTQINKVVRFDKLPGFGDSIEAQCGTSVNVHSSLRDILNQITKPNDVYSFSLASRLYAEERYPILPEYLQCVKELYRGGLEPINFQTAADQARELINSWVESQTNGIIRNVLQPSSVDSQTAMVLVNAIVFKGLWEKAFKDEDTQAMPFRVTEQESKPVQMMYQIGLFRVASMASEKMKILELPFASGTMSMLVLLPDEVSGLEQLESIINFEKLTEWTSSNVMEERKIKVYLPRMKMEEKYNLTSVLMAMGITDVFSSSANLSGISSAESLKISQAVHAAHAEINEAGREVVGSAEAGVDAASVSEEFRADHPFLFCIKHIATNAVLFFGRCVSP
# Tested on: small intestinal immune cells
# Test: Droplet-based scRNA-seq of small intestinal immune cells (LP and PP), OVA vs PBS, clustering and differential expression
# Type: in vivo, mouse
# Details: cluster ID 6, PP
# Description: To comprehensively characterize small intestinal immune cells, Applicants generated scRNA-Seq profiles for 58,067 immune cells collected from lamina propria (LP) and Peyer's patch (PP) regions at steady state and after induction of a type 2 inflammatory reaction to ovalbumin (OVA) (Brandt et al., 2003) (FIGS. 1A and 8A). To ensure sufficient representation of rare cells, Applicants combined a normalization strategy—removing by flow sorting either a portion of IgD+ naïve B cells, which are the most abundant cell type in PPs, or all CD19+ and CD3+ T cells (FIG. 8B, Methods)—with profiling of a sufficiently large number of cells number (P>0.99 to recover at least 15 cells from each cluster, Methods) by massively parallel scRNA-seq (Haber et al., 2017) (Methods). Applicants obtained 36,797 and 21,270 high quality cells passing initial filtering (Methods) from PP and LP regions, respectively.
# Overall, Applicants annotated 27 cell subsets across the two compartments, spanning T cells, B cells, ILCs, dendritic cells (DCs), myeloid cells and stromal cells, in frequencies ranging from 0.07% to 14%. Briefly, Applicants first partitioned the cells from the PP regions by unsupervised clustering (Methods) into 46 clusters, retained the 97% of cells that were robustly assigned cell identities in each cluster (Methods), assigned the cells from the LP regions to the 46 clusters using a classifier (Methods), and visualized the data with scvis (Ding et al., 2018), a deep generative model-based method (FIGS. 1B and 8C, Methods). Next, Applicants identified genes that were differentially expressed between the cells in each cluster and the remaining cells (Table 1, Methods), as well as between pairs of clusters (Table 2), to elucidate identities of similar cell types/states. Applicants excluded from downstream analysis clusters mostly consisting of contaminants from epithelium, likely doublets, or cells with a small number of Unique Molecular Identifiers (UMIs) (FIGS. 1C and 8D), or lacking distinct markers (Methods). Altogether, Applicants retained 27 clusters spanning 85% of the cells and each associated with distinct marker genes (FIG. 8E, Methods).
# To induce allergic reaction to OVA, 6 to 7 weeks old mice were sensitized twice, two weeks apart, with 50 μg of OVA plus 1 mg of aluminum potassium sulfate adjuvant via intraperitoneal injection. Two weeks later, mice were orally administered with 50 mg of OVA on every other day for a total of five times. 1 μg of α-CGRP peptide was administered simultaneously when indicated. Mice were deprived of food for 3-4 hours in cages with wood chip bedding for limiting antigen degradation in the stomach before each intragastric challenge.
# Isolation of cells from Peyer's patches (PPs). Peyer's patches (PPs) were carefully dissected from the small intestine under a stereo microscope using a fine scissor, pierced once with a fine forcep. Tissues were digested in freshly made digestion buffer (RPMI-1640 containing 100 μg/ml Liberase™ and 50 μg/ml DNase I at 37° C. on a roto-mixer. After 15 min, tissues were very gently mixed using a 1 ml pipette. The supernatant was collected and added to ice-cold MACS buffer (pH 7.4; PBS plus 2% FCS and 2 mM EDTA). Pre-warmed (37° C.) fresh digestion buffer was added to the remaining tissues. After rotation at 37° C. for 15 min, the mixture was vigorously mixed using a 1 ml pipette for 1 min. Supernatants from the two steps were combined and passed through 70 μm filters and stained for FACS (below).
# Isolation of cells from the lamina propria (LP). The small intestines were opened longitudinally and washed in ice-cold PBS. For scRNA-seq, roughly 0.5 cm of fragments from each of the distal, middle and proximal regions without visible PPs were collected. Epithelial cells were dissociated by tissue rotation in pre-warmed (37° C.) PBS containing 10 mM EDTA at 37° C. for 15 min, followed by additional incubation on ice for 15 min. Tissues were then shaken vigorously. […]
molecule,measurement,setting,value
B1,Mcpt1: percentage of expressing cells in OVA-treated group,,0.35
same,Mcpt2: percentage of expressing cells in OVA-treated group,,0.212
same,Mir142hg: percentage of expressing cells in OVA-treated group,,0.169
same,Mpeg1: percentage of expressing cells in OVA-treated group,,0.992
same,Napsa: percentage of expressing cells in OVA-treated group,,0.888
same,Neat1: percentage of expressing cells in OVA-treated group,,0.885
same,Nfkbia: percentage of expressing cells in OVA-treated group,,0.661
same,Nfkbiz: percentage of expressing cells in OVA-treated group,,0.336
same,Npc2: percentage of expressing cells in OVA-treated group,,0.985
same,Nr4a1: percentage of expressing cells in OVA-treated group,,0.508
same,Nr4a3: percentage of expressing cells in OVA-treated group,,0.134
same,Odc1: percentage of expressing cells in OVA-treated group,,0.366
same,Os9: percentage of expressing cells in OVA-treated group,,0.441
same,Pik3ip1: percentage of expressing cells in OVA-treated group,,0.423
same,Pim1: percentage of expressing cells in OVA-treated group,,0.509
same,Plek: percentage of expressing cells in OVA-treated group,,0.617
same,Plekho2: percentage of expressing cells in OVA-treated group,,0.201
same,Pltp: percentage of expressing cells in OVA-treated group,,0.878
same,Pnrc1: percentage of expressing cells in OVA-treated group,,0.706
same,Ppia: percentage of expressing cells in OVA-treated group,,0.998
same,Ppp1r16b: percentage of expressing cells in OVA-treated group,,0.237
same,Ppp2ca: percentage of expressing cells in OVA-treated group,,0.539
same,Psap: percentage of expressing cells in OVA-treated group,,0.997
same,Ptp4a1: percentage of expressing cells in OVA-treated group,,0.4
same,Ptpre: percentage of expressing cells in OVA-treated group,,0.392
same,Rel: percentage of expressing cells in OVA-treated group,,0.381
same,Rgs1: percentage of expressing cells in OVA-treated group,,0.466
same,Rilpl2: percentage of expressing cells in OVA-treated group,,0.851
same,Rnase6: percentage of expressing cells in OVA-treated group,,0.991
same,Rnf19b: percentage of expressing cells in OVA-treated group,,0.255
same,Rpn2: percentage of expressing cells in OVA-treated group,,0.664
same,Runx3: percentage of expressing cells in OVA-treated group,,0.53
same,S1pr4: percentage of expressing cells in OVA-treated group,,0.351
same,Sell: percentage of expressing cells in OVA-treated group,,0.983
same,Selplg: percentage of expressing cells in OVA-treated group,,0.992
same,Sf3b1: percentage of expressing cells in OVA-treated group,,0.706
same,Siah2: percentage of expressing cells in OVA-treated group,,0.253
same,Skil: percentage of expressing cells in OVA-treated group,,0.435
same,Sla2: percentage of expressing cells in OVA-treated group,,0.735
same,Smc6: percentage of expressing cells in OVA-treated group,,0.849
same,Socs3: percentage of expressing cells in OVA-treated group,,0.55
same,Spsb2: percentage of expressing cells in OVA-treated group,,0.187
same,Tgif1: percentage of expressing cells in OVA-treated group,,0.115
same,Tnfaip8l2: percentage of expressing cells in OVA-treated group,,0.512
same,Traf4: percentage of expressing cells in OVA-treated group,,0.535
same,Trim25: percentage of expressing cells in OVA-treated group,,0.339
same,VgIl4: percentage of expressing cells in OVA-treated group,,0.34
same,Vps37b: percentage of expressing cells in OVA-treated group,,0.424
same,Wnk1: percentage of expressing cells in OVA-treated group,,0.605
same,Zc3h12a: percentage of expressing cells in OVA-treated group,,0.135
same,Zfand5: percentage of expressing cells in OVA-treated group,,0.423
same,Zfp36l2: percentage of expressing cells in OVA-treated group,,0.783
same,AY036118: LN (average fold change),OVA vs PBS,−0.256
same,Atf3: LN (average fold change),OVA vs PBS,−0.693
same,Atp5h: LN (average fold change),OVA vs PBS,0.168
same,B3gnt8: LN (average fold change),OVA vs PBS,0.265
same,Bcl2l11: LN (average fold change),OVA vs PBS,−0.499
same,Bhlhe40: LN (average fold change),OVA vs PBS,−0.297
same,Bloc1s2: LN (average fold change),OVA vs PBS,0.218
same,Btg2: LN (average fold change),OVA vs PBS,−0.156
same,Ccl4: LN (average fold change),OVA vs PBS,0.241
same,Cd68: LN (average fold change),OVA vs PBS,0.204
same,Cd83: LN (average fold change),OVA vs PBS,−0.472
same,Cdv3: LN (average fold change),OVA vs PBS,−0.219
same,Clcn3: LN (average fold change),OVA vs PBS,−0.239
same,Clec10a: LN (average fold change),OVA vs PBS,0.327
same,Clec2d: LN (average fold change),OVA vs PBS,0.409
same,Coq10b: LN (average fold change),OVA vs PBS,−0.336
same,Crem: LN (average fold change),OVA vs PBS,−0.279
same,Cxcr3: LN (average fold change),OVA vs PBS,0.302
same,Cxcr4: LN (average fold change),OVA vs PBS,0.491
same,D13Ertd608e: LN (average fold change),OVA vs PBS,0.276
same,Ddit4: LN (average fold change),OVA vs PBS,1.322
same,Ddx3x: LN (average fold change),OVA vs PBS,−0.202
same,Defa24: LN (average fold change),OVA vs PBS,−1.145
